What follows are substances tested against Recombinant human IGF-II R (CI-MPR), cation-independent mannose-6-phosphate receptor (human) (UniProt P11717) (assay: SPR).
Substance “Bis-phosphoglycoprotein 30: bovine ribonuclease B carrying a bis-M6P-Man6GlcNAc2 glycan at Asn-34 (from UniProt P61823 27-150) (enzyme)” has a Kd of 28.9 nM. “Cyclic phosphoglycopeptide 34: HIV-1 ZM109 V1V2 cyclic peptide carrying two bis-M6P-Man6GlcNAc2 glycans at N160 and N173” was tested, and the Kd was 2.35 nM. Substance “Phosphoglycoprotein 32: bovine ribonuclease B carrying the unnatural bis-M6P Man3GlcNAc2 glycan (from UniProt P61823 27-150) (enzyme)” has a Kd of 168 nM.
